Data published in patent WO2020171171A1 (dated 2020).

Target: HLA-DR antigen expressed on human cells (L428, KM-H2, B cells of PBMC, other cancer cell lines, tumour tissue) (human)
Test: cell-based or functional assay

B1: BP1206 chimeric antibody (human Fc chimeric recombinant antibody designed based on the antibody LN-3) (antibody, human IgG1, kappa, L234A L235A, V domains shown)
VH: QVHLKQSGPGLVQPSQSLSITCTVSGFSLTRFGVHWIRQSPGKSLEWLGVTWSGGTTVYNGAFISRLSITKDISKSQVFFKMNSLQVDDTGIYYCARAYYAMDYWGQGTSVTVSS
VL: DVQMTQSPSYLAASPGETITIHCRASESIGKYLAWYQKKPGRSNRLLIYSGSTLQSGIPSRFSGSGSGTDFTLTVSSLEPEDFAMYYCQHHNDYPWTFGGGTKVEIKR
decrease in abundance of B cells (CD19 positive cells) among live PBMC, relative to isotype control (1 μg/ml antibody, 2 h, flow cytometry): ~60%
